{"source": "paper PMC7806825", "target": "Recombinant ligand-binding domain of McpC (amino acid residues 35-189) (Salmonella enterica serovar Typhimurium SL1344)", "experiment": "AUC; sedimentation velocity analytical ultracentrifugation (SV-AUC), done commercially (KBI BioPharma); purified McpC ligand-binding domain; dimers present at >=4 mg/mL; monomer to dimer"}
{"substance": "Recombinant ligand-binding domain of McpC (amino acid residues 35-189) (domain or fragment)", "values": [{"measurement": "stoichiometry N", "value": 2}]}
